B1: cdr2 213-221 … (peptide)
peptide: RQKRVTMEE
B2: cdr2 156-164 … (peptide)
peptide: PSFACLKEL
B3: cdr2 165-173 … (peptide)
peptide: YDLRQHFVY
B4: cdr2 235-243 … (peptide)
peptide: QQLGATGAY
B5: cdr2 72-80 … (peptide)
peptide: LLRQMNEQH
B6: cdr2 24-32 … (peptide)
peptide: LQQDLQLAA
B7: cdr2 257-265 … (peptide)
peptide: MRQMLQSEH
B8: cdr2 260-268 … (peptide)
peptide: MLQSEHPFV
modifications: not checked

biological target: HLA-A*1501 (human); experiment: iTopia net score

Binder | iScore
B1 | 0.065
B2 | 0.072
B3 | 0.098
B4 | 0.255
B5 | 0.106
B6 | 0.09
B7 | 0.075

biological target: HLA-A*0201 (human); experiment: iTopia affinity

Binder | ED50 [µM]
B8 | 2

biological target: HLA-A*0201 (human); experiment: iTopia net score

Binder | iScore
B8 | 0.584

biological target: HLA-A*0201 (human); experiment: iTopia binding

Binder | binding vs positive control [%]
B8 | > 30

biological target: HLA-A*1501 (human); experiment: iTopia affinity

Binder | ED50 [µM]
B1 | 110
B2 | 45
B3 | 45
B4 | 8.6
B5 | 68
B6 | 42
B7 | 170

Source: patent publication US20090208538A1
